Laboratory results published in publication PMC3564914, “Transcriptome analysis of bitter acid biosynthesis and precursor pathways in hop (Humulus lupulus)” (BMC Plant Biology, 2013).

B1: HlBCAT1 (Humulus lupulus) (protein)
chain: SSTSLAKSSLKQSCELSCKSNTEPSNMDWDKLGFKLMPTDYVYSMKCSNEGNFEQGRLELHGNIELSPAAAVLNYGQGIFEGTKAYRKEDGSLLLFRPDQNGVRMRIGAERMCMPSPSVDQFVDAVKQTAIANRRWVPPSGKGSLYIRPLLMGTGAVLGVAPAPQYTFLAYASPVGNYFKEGLAPLRLYVEDEFDRASPGGTGFVKTIGNYSRCLAALSRAKNKGFSDVLFLDSVHKKYVEELSSCNIFIVQGNQISTPAANGTILSGVTRSSIIEIARDHGFKVEERKIAVDELMEAEEVFCTGTAVGVASVGSITYHNKRVEFKTGSQSVSQKFYSTLIGIQTGVVEDKKGWIVEID
notes: N-terminal vector His tag (pHIS8/GW), E. coli BL21(DE3) Rosetta2 pLysS, Talon purified
B2: HlBCAT2 (Humulus lupulus) (protein)
chain: NATLSDTYSETVELADIDWDNLGFGFLPTDYMYNMKCAQGESFSNGELQRFGNIELSPSAGVLNYGQGLFEGLKAYRKEDGNILLFRPEENALRMRLGAERMCMPSPTVDQFVDAVKATVLANKRWIPPVGKGSLYIRPLLMGSGAVLGLAPAPEYTFLIYVSPVGNYFKEGVAPIHLIVEDNLHRATPGGTGGVKTIGNYAAVLKAQSAAKEQGYSDVLYLDCVHKKYLEEVSSCNIFVVKGNLIFTPAIKGTILPGITRKSIIDVARTLGFQVEERLVHVDELLDADEVFCTGTAVVVSPVGSITYHGERVPYNEGGVGAVSQQLYSALTRLQMGFIKDNMNWTVELS
notes: as for B1

Assays:
Assay in all cases: purified protein
Type in all cases: biochemical, Humulus lupulus
purified protein [1] = substrate: CC(C)C[C@H](N)C(=O)O; conditions: catabolic direction, 2 mM 2-oxoglutarate, 50 μM PLP, Tris HCl pH 8.5, 22°C
purified protein [2] = substrate: O=C(O)CCC(=O)C(=O)O; conditions: catabolic direction, 2 mM leucine, 50 μM PLP, Tris HCl pH 8.5, 22°C
purified protein [3] = substrate: N[C@@H](CCC(=O)O)C(=O)O; conditions: anabolic direction, 0.5 mM ketoisovalerate, 50 μM PLP, 100 mM ammonium chloride, Tris HCl pH 8.5, 22°C
purified protein [4] = substrate: CC[C@H](C)[C@H](N)C(=O)O; conditions: catabolic direction, 2 mM 2-oxoglutarate, 50 μM PLP, Tris HCl pH 8.5, 22°C
purified protein [5] = substrate: CC(C)C(=O)C(=O)O; conditions: anabolic direction, 2 mM glutamate, 50 μM PLP, 100 mM ammonium chloride, Tris HCl pH 8.5, 22°C
purified protein [6] = substrate: CC(C)CC(=O)C(=O)O; conditions: anabolic direction, 2 mM glutamate, 50 μM PLP, 100 mM ammonium chloride, Tris HCl pH 8.5, 22°C
purified protein [7] = substrate: CC[C@H](C)C(=O)C(=O)O; conditions: anabolic direction, 2 mM glutamate, 50 μM PLP, 100 mM ammonium chloride, Tris HCl pH 8.5, 22°C
purified protein [8] = substrate: CC(C)[C@H](N)C(=O)O; conditions: catabolic direction, 2 mM 2-oxoglutarate, 50 μM PLP, Tris HCl pH 8.5, 22°C

Protein | Km (purified protein [1]) [µM] | Vmax (purified protein [1]) [µmol/min/mg] | Km (purified protein [2]) [µM] | Vmax (purified protein [2]) [µmol/min/mg] | Km (purified protein [3]) [µM] | Vmax (purified protein [3]) [µmol/min/mg] | Km (purified protein [4]) [µM] | Vmax (purified protein [4]) [µmol/min/mg] | Km (purified protein [5]) [µM] | Vmax (purified protein [5]) [µmol/min/mg] | Km (purified protein [6]) [µM] | Vmax (purified protein [6]) [µmol/min/mg] | Km (purified protein [7]) [µM] | Vmax (purified protein [7]) [µmol/min/mg] | Km (purified protein [8]) [µM] | Vmax (purified protein [8]) [µmol/min/mg]
B1 | 40 ± 9.20 | 4.84 | 30 ± 5.39 | 4.5 | 720 ± 55.59 | 5.59 | 230 ± 26.94 | 19.4 | 99 ± 6.53 | 4.23 | 35 ± 3.27 | 4.5 | 99 ± 10.75 | 2.95 | 340 ± 90.94 | 12.6
B2 | 280 ± 69.56 | 43.4 | 210 ± 58.86 | 36.9 | 690 ± 88.51 | 136 | 250 ± 41.07 | 88.1 | 200 ± 11.72 | 96.4 | 120 ± 11.43 | 119 | 160 ± 11.63 | 84.7 | 130 ± 27.74 | 23.3
